Experimental data from PMC5995851, “Conformational rearrangements of the C1 ring in KaiC measure the timing of assembly with KaiB” (Scientific Reports, 2018).
Substitutions are numbered along the chain they refer to.

Key:
[1] = biological target: T1, KaiC^S157W-D/T (S157W/S431D, pS/T mimic) (Synechococcus elongatus, UniProt Q79PF4 1-519, S157W | S431D); experiment: tryptophan (W157) fluorescence quenching; KaiC^S157W phospho-mimicking mutants with or without an equimolar concentration of KaiB (monomer basis), spectra after 24 h incubation at 30 °C; 50 mM Tris, 150 mM NaCl, 5 mM MgCl2, 0.5 mM EDTA, 1 mM ATP, pH 8.0; excitation 295 nm; conditions: both partners purified
T1 construct: Circadian clock protein KaiC, Synechococcus elongatus, with C1 and C2 domains; Trp probe S157W and phospho-mimicking S431D
T1 sequence: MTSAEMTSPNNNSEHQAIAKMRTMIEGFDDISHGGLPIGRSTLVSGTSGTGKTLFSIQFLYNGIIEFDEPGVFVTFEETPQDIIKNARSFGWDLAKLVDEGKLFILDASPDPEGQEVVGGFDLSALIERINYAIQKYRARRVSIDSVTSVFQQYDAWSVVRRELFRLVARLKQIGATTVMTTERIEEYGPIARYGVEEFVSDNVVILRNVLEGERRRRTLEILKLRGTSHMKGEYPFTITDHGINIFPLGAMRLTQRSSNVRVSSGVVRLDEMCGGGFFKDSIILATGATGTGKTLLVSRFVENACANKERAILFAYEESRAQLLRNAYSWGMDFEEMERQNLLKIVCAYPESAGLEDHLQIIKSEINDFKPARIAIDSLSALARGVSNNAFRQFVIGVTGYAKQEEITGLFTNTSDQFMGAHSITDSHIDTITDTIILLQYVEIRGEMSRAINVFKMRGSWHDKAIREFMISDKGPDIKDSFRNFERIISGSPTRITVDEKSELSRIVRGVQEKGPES

[2] = biological target: T2, KaiC^S157W-D/E (S157W/S431D/T432E, pS/pT mimic) (Synechococcus elongatus, UniProt Q79PF4 1-519, S157W | S431D | T432E); experiment: other fluorescence titration; time-resolved W157 fluorescence at 30 °C after addition of KaiB to KaiC pre-incubated at 30 °C for at least 2 h; KaiC^S157W-D/E fixed at 3.5 µM, KaiB equimolar or 0.9-10.5 µM; 1 mM ATP buffer, pH 8.0; conditions: both partners purified
T2 construct: Circadian clock protein KaiC, Synechococcus elongatus, with C1 and C2 domains; Trp probe S157W and phospho-mimicking S431D/T432E
T2 sequence: T1 sequence with T432E

- binding result [1]: binds
- t1/2 of the FIapp decrease after addition of equimolar KaiB [2]: 2.4 h
B1: KaiB (wild type) (natural protein, Synechococcus elongatus, UniProt Q79PF5 1-102, looked up)
chain: MSPRKTYILKLYVAGNTPNSVRALKTLKNILEVEFQGVYALKVIDVLKNPQLAEEDKILATPTLAKVLPLPVRRIIGDLSDREKVLIGLDLLYGELQDSDDF
notes: Circadian clock protein KaiB, Synechococcus elongatus, wild type
